Data as given in article PMC12464994, “Quantification of Membrane Protein Conformational Free Energy from Mutations and a Single Atom” (Journal of the American Chemical Society, 2025).
Numbering of substitutions follows the chain as printed. Names and notes keep the numbering of the source.

B1: 5FW-EmrE^W63 (EmrE W31F/W45F/W76F labeled with 5-fluoro-tryptophan at Trp63) (natural protein, E. coli)
chain: MNPYIYLGGAILAEVIGTTLMKFSEGFTRLFPSVGTIICYCASFFLLAQTLAYIPTGIAYAIWSGVGIVLISLLSFGFFGQRLDLPAIIGMMLICAGVLIINLLSRSTPH
modifications: 5-fluoro-tryptophan at Trp63
notes: EmrE, small multidrug resistance (SMR) transporter of E. coli; only Trp63 kept of the four tryptophans; also called 5FW-labeled EmrE^W63; source: E. coli BL21(DE3), M9 medium with glyphosate and fluoro-indole, purified (amylose column, TEV cleavage, SEC in DDM)
B2: 6FW-EmrE^W63 (EmrE W31F/W45F/W76F labeled with 6-fluoro-tryptophan at Trp63) (natural protein, E. coli)
chain: B1 chain
modifications: 6-fluoro-tryptophan at Trp63
notes: EmrE, small multidrug resistance (SMR) transporter of E. coli; only Trp63 kept of the four tryptophans; also called 6FW-labeled EmrE^W63; source: E. coli BL21(DE3), M9 medium with glyphosate and fluoro-indole, purified (amylose column, TEV cleavage, SEC in DDM)
B3: 5FW-EmrE^(W63, E14Q) (natural protein, E. coli)
chain: B1 chain with E14Q
modifications: 5-fluoro-tryptophan at Trp63
notes: EmrE, small multidrug resistance (SMR) transporter of E. coli; EmrE^W63 background with E14Q; also called Gln14 mutant monomer; source: E. coli BL21(DE3), M9 medium with glyphosate and fluoro-indole, purified (amylose column, TEV cleavage, SEC in DDM)
B4: 5FW-EmrE^(W63, L51I) (natural protein, E. coli)
chain: B1 chain with L51I
modifications: 5-fluoro-tryptophan at Trp63
notes: EmrE, small multidrug resistance (SMR) transporter of E. coli; EmrE^W63 background with L51I; source: E. coli BL21(DE3), M9 medium with glyphosate and fluoro-indole, purified (amylose column, TEV cleavage, SEC in DDM)

Key:
Experiment in all cases: 19F NMR spectroscopy (one-dimensional spectra and 19F/19F ZZ-exchange/NOESY); proteins alone or mixed in DDM (1 h, 37 °C, 10 mM DTT) at stated molar ratios, reconstituted in 14:0-PC/6:0-PC isotropic bicelles (q = 0.33); pH 5.6; 37 °C; 1-2 mM protein; 150 mM Na2HPO4, 20 mM NaCl
[1] = target: T1, EmrE^W63 (EmrE W31F/W45F/W76F), natural abundance (E. coli, UniProt P23895 1-110, W31F | W45F | W76F); settings: both partners purified
T1 construct: EmrE, small multidrug resistance (SMR) transporter of E. coli; only Trp63 kept of the four tryptophans; NMR-silent partner in the mixed (heterodimer) samples; reconstituted in 14:0-PC/6:0-PC bicelles; also called unlabeled EmrE^W63; natural abundance EmrE^W63; source: E. coli BL21(DE3), LB medium, purified (amylose column, TEV cleavage, SEC in DDM)
T1 sequence: B1 chain

[2] = target: T2, EmrE^(W63, L51I), natural abundance (E. coli, UniProt P23895 1-110, W31F | W45F | W76F | L51I); settings: both partners purified
T2 construct: EmrE, small multidrug resistance (SMR) transporter of E. coli; EmrE^W63 background with L51I; also called natural abundance EmrE^(W63, L51I); source: E. coli BL21(DE3), purified (amylose column, TEV cleavage, SEC in DDM)
T2 sequence: B1 chain with L51I

[3] = target: the molecule itself
[4] = target: T3, EmrE^(W63, E14Q), natural abundance (E. coli, UniProt P23895 1-110, W31F | W45F | W76F | E14Q); settings: both partners purified
T3 construct: EmrE, small multidrug resistance (SMR) transporter of E. coli; EmrE^W63 background with E14Q; also called natural abundance EmrE^(W63, E14Q); source: E. coli BL21(DE3), purified (amylose column, TEV cleavage, SEC in DDM)
T3 sequence: B1 chain with E14Q

[5] = target: B2; settings: both partners purified

| Binder | binding result [1] | binding result [2] | binding result [3] | binding result [4] | binding result [5] |
| --- | --- | --- | --- | --- | --- |
| B1 | binds | binds | binds | binds | – |
| B2 | binds | – | binds | – | – |
| B3 | binds | – | binds | – | – |
| B4 | binds | – | binds | – | binds |
